From PMC7534208 come the findings set out here.

The target in the test is transportin 1 (TNPO1) (human (endogenous in HeLa)) (UniProt Q92973). As to the kind of experiment: proximity ligation.
Chain of UniProt Q92973 (Q92973 whole entry): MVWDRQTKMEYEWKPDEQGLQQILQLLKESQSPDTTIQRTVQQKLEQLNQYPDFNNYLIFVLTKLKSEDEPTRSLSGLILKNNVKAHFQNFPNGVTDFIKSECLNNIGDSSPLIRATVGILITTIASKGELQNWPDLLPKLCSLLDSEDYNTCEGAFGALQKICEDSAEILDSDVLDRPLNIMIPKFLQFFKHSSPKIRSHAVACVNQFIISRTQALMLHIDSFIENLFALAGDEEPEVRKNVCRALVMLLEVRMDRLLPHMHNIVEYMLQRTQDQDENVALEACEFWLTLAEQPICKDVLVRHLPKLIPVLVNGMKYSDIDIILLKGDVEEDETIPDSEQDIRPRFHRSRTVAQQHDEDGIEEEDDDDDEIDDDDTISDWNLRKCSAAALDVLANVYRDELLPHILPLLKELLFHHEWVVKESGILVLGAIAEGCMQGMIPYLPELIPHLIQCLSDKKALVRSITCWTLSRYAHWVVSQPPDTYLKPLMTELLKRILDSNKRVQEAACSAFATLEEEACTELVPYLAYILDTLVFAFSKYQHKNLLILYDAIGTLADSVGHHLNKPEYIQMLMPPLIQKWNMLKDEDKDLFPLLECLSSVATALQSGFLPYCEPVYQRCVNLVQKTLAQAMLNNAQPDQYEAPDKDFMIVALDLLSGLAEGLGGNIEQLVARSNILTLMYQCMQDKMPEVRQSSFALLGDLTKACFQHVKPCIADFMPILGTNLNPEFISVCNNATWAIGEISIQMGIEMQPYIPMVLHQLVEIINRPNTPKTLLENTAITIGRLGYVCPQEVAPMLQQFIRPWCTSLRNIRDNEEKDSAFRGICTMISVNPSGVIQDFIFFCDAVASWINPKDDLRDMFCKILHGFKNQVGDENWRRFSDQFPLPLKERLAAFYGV

On to “HIV-1 Rev (regulator of expression of virion proteins), HA-tagged (from UniProt P04618 1-116) (natural protein)”, for which the PLA puncta per cell (puncta per cell) worked out at 26.
